According to PMC5474359:

Biological target: T1, CD-86, P42081
T1 chain: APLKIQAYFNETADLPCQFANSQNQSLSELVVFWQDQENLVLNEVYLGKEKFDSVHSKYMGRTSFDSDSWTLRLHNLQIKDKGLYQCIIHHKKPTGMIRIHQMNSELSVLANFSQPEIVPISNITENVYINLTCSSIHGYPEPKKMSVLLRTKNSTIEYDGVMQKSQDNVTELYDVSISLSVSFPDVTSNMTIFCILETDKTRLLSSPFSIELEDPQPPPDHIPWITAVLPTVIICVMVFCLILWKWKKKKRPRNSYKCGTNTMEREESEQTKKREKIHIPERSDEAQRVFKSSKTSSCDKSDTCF
Assay: fluorescence correlation spectroscopy with photon counting histogram
Conditions: remark: other sources report otherwise

B1: CD-86, P42081 24-329 (receptor)
chain: APLKIQAYFNETADLPCQFANSQNQSLSELVVFWQDQENLVLNEVYLGKEKFDSVHSKYMGRTSFDSDSWTLRLHNLQIKDKGLYQCIIHHKKPTGMIRIHQMNSELSVLANFSQPEIVPISNITENVYINLTCSSIHGYPEPKKMSVLLRTKNSTIEYDGVMQKSQDNVTELYDVSISLSVSFPDVTSNMTIFCILETDKTRLLSSPFSIELEDPQPPPDHIPWITAVLPTVIICVMVFCLILWKWKKKKRPRNSYKCGTNTMEREESEQTKKREKIHIPERSDEAQRVFKSSKTSSCDKSDTCF
- PCH molecular brightness: 9360 CPSM
